B1: IKZF1 (parent)
chain: RDPFECNMCGYHSQDRYEFSSHIT
B2: ZNF207 (parent)
chain: YQGGPPRPPMGMRPPVMSQGGRY

Variants of: B1
Assay: protein stability index of a GFP-peptide fusion (GPS, HEK-293T) (PSI 1-6); higher = more stable
Settings: c terminus: a fixed tail appended
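Also: lentivirally expressed fusions sorted by FACS into six bins by GFP to DsRed ratio, PSI derived from sequencing read proportions per bin multiplied by bin number.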

Row | Variant | protein stability index
1 | H22C | 2.54
2 | S13G | 2.17
3 | R1H | 2.92
4 | E18V | 2.72
5 | I23E | 3.48
6 | S20C | 3.08
7 | H22Q | 2.02
8 | S20W | 2.15
9 | T24D | 2.68
10 | S21V | 2.36
11 | R1Y | 1.73
12 | I23P | 2.35
13 | H22G | 2.17
14 | H22E | 2.55
15 | S13Y | 1.92
16 | G10F | 1.81
17 | I23Q | 2.21
18 | D15Q | 2.34
19 | R1K | 2.15
20 | G10Q | 2.58
21 | D15G | 1.98
22 | P3E | 2.29
23 | I23T | 2.36
24 | C6H | 2.43
25 | N7D | 2.51
26 | Q14W | 1.22
27 | S13P | 3

Row | Variant | protein stability index
28 | D15W | 2.13
29 | H12F | 2.15
30 | Y11C | 2.13
31 | P3I | 1.91
32 | C9F | 2.34
33 | E5M | 1.88
34 | T24F | 1.95
35 | I23C | 2.59
36 | D15Y | 1.66
37 | C9K | 3.19
38 | Q14K | 1.97
39 | F4W | 2.27
40 | R16M | 2.78
41 | H12E | 2.39
42 | S21H | 2.63
43 | S13Q | 2.39
44 | R16C | 2.23
45 | H12G | 2.25
46 | C9M | 3.06
47 | S21K | 2.28
48 | S21N | 2.3
49 | Y11T | 2.6
50 | S20K | 1.93
51 | E18R | 1.99
52 | F4N | 3.05
53 | P3A | 1.64
54 | F19R | 2.38

Row | Variant | protein stability index
55 | E18A | 1.91
56 | E18W | 1.51
57 | F19T | 2.94
58 | C9A | 2.98
59 | T24K | 2.52
60 | C9G | 3.02
61 | R16W | 2.03
62 | G10M | 1.82
63 | E18H | 2.08
64 | R16Y | 1.75
65 | N7T | 2.18
66 | E18P | 1.67
67 | F19K | 3.06
68 | C9P | 3.09
69 | M8S | 2.4
70 | I23N | 2.28
71 | R16S | 1.98
72 | I23Y | 1.82
73 | H12Y | 1.97
74 | S13N | 2.39
75 | F4L | 2.17
76 | Q14E | 2.29
77 | I23G | 2.43
78 | M8I | 2.16
79 | S21I | 2.28
80 | S20L | 2.44

Variants of: B2
Assay: as above
Settings: c terminus: native

Row | Variant | protein stability index
81 | Y1A | 3.11
82 | Y1C | 3.27
83 | Y1G | 3.87
84 | Y1H | 2.91
85 | Y1I | 2.89
86 | Y1K | 3.55
87 | Y1M | 3.87
88 | Y1N | 3.31
89 | Y1Q | 3.65
90 | Y1R | 3.21
91 | Y1S | 1.67
92 | Y1T | 2.64
93 | Y1W | 2.49
94 | Q2A | 2.19
95 | Q2D | 2.16
96 | Q2E | 2.4
97 | Q2F | 1.65
98 | Q2G | 3.02
99 | Q2K | 2.57
100 | Q2L | 2.34
101 | Q2M | 2.05
102 | Q2N | 2.45

Row | Variant | protein stability index
103 | Q2P | 1.72
104 | Q2W | 2.1
105 | Q2Y | 2.89
106 | G3A | 2.62
107 | G3E | 2.33
108 | G3H | 1.5
109 | G3I | 3.37
110 | G3K | 2.89
111 | G3L | 2.31
112 | G3M | 1.59
113 | G3N | 1.38
114 | G3Q | 2.32
115 | G3S | 1.47
116 | G3V | 1.43
117 | G3W | 1.39
118 | G3Y | 2.42
119 | G4C | 2.52
120 | G4D | 3.56
121 | G4E | 2.69
122 | G4H | 2.6
123 | G4I | 2.34
124 | G4K | 2.78

Row | Variant | protein stability index
125 | G4L | 1.5
126 | G4M | 1.46
127 | G4N | 3.23
128 | G4Q | 3.54
129 | G4R | 2.51
130 | G4S | 3.05
131 | G4V | 2.74
132 | G4W | 3.5
133 | G4Y | 2.05
134 | P5A | 2.27
135 | P5C | 1.61
136 | P5E | 2.81
137 | P5G | 2.99
138 | P5H | 1.92
139 | P5I | 1.71
140 | P5K | 2.56
141 | P5L | 2.34
142 | P5M | 1.22
143 | P5N | 2.12
144 | P5Q | 2.62
145 | P5T | 3.09
146 | P5V | 2.82

Row | Variant | protein stability index
147 | P6A | 1.6
148 | P6C | 1.96
149 | P6D | 2.73
150 | P6E | 2.95
151 | P6G | 2.07
152 | P6H | 2.23
153 | P6I | 2.49
154 | P6K | 2.91
155 | P6L | 2.58
156 | P6M | 2.19
157 | P6N | 2.59
158 | P6Q | 2.2
159 | P6S | 2.45
160 | P6T | 2.06
161 | P6Y | 1.78
162 | R7C | 1.23
163 | R7E | 3.09
164 | R7G | 2.8
165 | R7I | 1.92
166 | R7K | 2.71
167 | R7L | 1.7

From the supplement of paper PMC10567573
